The target in this test is T1, Cdc34A^FL, full length Cdc34A (residues 1-236) (human, UniProt P49427 1-236).
T1 sequence: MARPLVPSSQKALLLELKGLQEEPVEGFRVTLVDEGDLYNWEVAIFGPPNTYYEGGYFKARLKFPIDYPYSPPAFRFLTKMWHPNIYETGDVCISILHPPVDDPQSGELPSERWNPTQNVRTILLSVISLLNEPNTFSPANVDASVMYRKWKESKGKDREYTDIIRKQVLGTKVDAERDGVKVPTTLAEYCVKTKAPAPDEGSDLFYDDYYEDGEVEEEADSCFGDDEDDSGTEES
The test is described as follows: NMR titration.

B1: Rbx1^12-108-SSQS, Rbx1 fragment that contains the RING domain (residues 12-108) (domain or fragment)
chain: not shown
Consider B1, for which the binding result is “binds”.

The record behind these values is paper PMC3905752 (Nature chemical biology, 2013).
